The chains are these.
B1: Guanyl-specific ribonuclease T1 wild type, P00651 (protein)
chain: MMYSKLLTLTTLLLPTALALPSLVERACDYTCGSNCYSSSDVSTAQAAGYQLHEDGETVGSNSYPHKYNNYEGFDFSVSSPYYEWPILSSGDVYSGGSPGADRVVFNENNQLAGVITHTGASGNNFVECT
B2: Guanyl-specific ribonuclease Sa wild type, P05798 (protein)
chain: DVSGTVCLSALPPEATDTLNLIASDGPFPYSQDGVVFQNRESVLPTQSYGYYHEYTVITPGARTRGTRRIITGEATQEDYYTGDHYATFSLIDQTC

The conditions of the first data set: Aspergillus oryzae (strain ATCC 42149 / RIB 40); pH 2.5; 25 °C; Urea; CD; glycine 30 mM; whole UniProt chain shown.
As for B1, the denaturant m value amounted to 1.59 kcal/mol/M and the “denaturant midpoint (higher = more stable)” value turned out to be 3.66 M.

The same data set, now with this note: Aspergillus oryzae (strain ATCC 42149 / RIB 40); pH 7; 25 °C; Urea; CD; MOPS 30 mM; whole UniProt chain shown.
B1: the denaturant m value worked out at 1.23 kcal/mol/M and the “denaturant midpoint (higher = more stable)” value is 5.23 M.

The data set is the same for the next values; noted with them: Kitasatospora aureofaciens; pH 7; Thermal; CD; MOPS 30 mM; whole UniProt chain shown.
Take B2: the Tm amounted to 47.2 °C and the “unfolding enthalpy (van 't Hoff)” value came to 91 kcal/mol.

The values are drawn from FireProtDB (doi:10.1110/ps.8.9.1843).
